According to publication doi:10.1101/2025.05.02.651933 (bioRxiv, 2025):

Target: HIV gp120 monomer of strain CN97001 (HIV-1, strain CN97001 (paper: clade C); …, UniProt G4XFJ5, strain)
Assay: BLI

B1: recombinant bnAb 10-1074 (from pTT3 10-1074 NHP-IgG) (antibody, V domains shown)
VH: QVQLQESGPGLVKPSETLSVTCSVSGDSMNNYYWTWIRQSPGKGLEWIGYISDRESATYNPSLNSRVVISRDTSKNQLSLKLNSVTPADTAVYYCATARRGQRIYGVVSFGEFFYYYSMDVWGKGTTVTVSS
VL: LSVALGETARISCGRQALGSRAVQWYQHRPGQAPILLIYNNQDRPSGIPERFSGTPDINFGTRATLTISGVEAGDEADYYCHMWDSRSGFSWSFGGATRLTVL
Q: Does B1 bind?
A: binds
